# Experimental data: publication PMC9628201
# Target: SARS-CoV-2 WA.1 Spike-6P trimer (SARS-CoV-2 (WA.1))
# Experiment: cryo-EM structure
substance,measurement,value
SARS-CoV-2 WA.1 Spike-6P trimer,stoichiometry N,3
